Test results: patent publication US8663616B2, “Enzymatic peracid generation for use in oral care products” (E I du Pont de Nemours and Company, priority 2010, dated 2014)
Positions count from the first letter of the chain named. Names and notes keep the numbering of the source. Values belong to the molecule of their own block, whether it stands above or below them.

How the values were obtained:
[1] = T. maritima C277S/C277T constructs, peracetic acid in solution (Example 11); format: biochemical; conditions: 0.5 μM enzyme, 100 mM triacetin, 100 mM H2O2, pH 7.2, 10 min, 37° C.; no enzyme 114
Description: (§1) The detection of peracetic acid followed the method described in Pinkernell et. al. (Analyst, 1997, 122, 567) using colorimetric detection of 2,2′-azino-bis(3-ethylbenzothiazoline(-6-sulfonate (ABTS) oxidation by peracetic acid. Following the formation of peracetic acid with the addition of triacetin and hydrogen peroxide, 90 μL of solution was added to 10 μL of 0.1 M H3PO4 in a well plate. 50 μL of 1 M acetic acid, 50 μL of 0.5 g/L ABTS and 50 μL of 0.002 g/L of KI was added. The solution was allowed to develop for 5 min. The absorbance of the solution was measured at 405 nm using a microplate reader. The peracetic acid concentration was calculated based on a standard curve developed simultaneously using peracetic acid reagent solution.
Perhydrolase enzymes listed in Table 5 were assessed for enzyme activity in solution as described in Example 7. The enzyme activity in solution was measured by making a 500 μl solution of 0.5 μM of each enzyme in 100 mM triacetin, 100 mM H2O2 and 10 mM phosphate buffer, pH 7.2. The solution was incubated for 10 min, at 37° C. After the reaction was stopped by mixing an aliquot with H3PO4, a 10 μL aliquot was removed for proper dilution, and then detected via ABTS oxidation as described in Example 7.

[2] = T. maritima C277S/C277T constructs, peracetic acid when bound to bovine enamel (Example 11); format: biochemical; conditions: bovine enamel exposed to 10 μM enzyme, 4 washes; 100 mM triacetin, 100 mM H2O2, 30 min, 37° C.; no enzyme 570
Description: as §1
The perhydrolase enzymes were also assessed for binding to bovine enamel substrates. Enamel substrates were prepared as described in Example 2 and 3. Each enamel block was hydrated in water for overnight at room temperature (˜22° C.). The enamel blocks were then equilibrated with 10 mM potassium phosphate buffer, pH7.2, for 10 min. The enamel substrates were rinsed 3 times the buffer. The enamel wells were filled with 500 μL of 10 μM enzyme solutions which was prepared by diluting in 10 mM phosphate buffer. The samples were incubated for 30 min with slow shaking at 37° C. The non-binding enzyme was removed by washing 4 times with phosphate buffer. Then, each enamel block was embedded inside a putty filled 24-well plate, with only the enamel top surface exposed. The perhydrolase activity from enamel bound enzyme was measured as described in Example 8. 100 μL reaction mixtures (100 mM phosphate buffer, pH7.2 and 100 mM H2O2 and 100 mM triacetin) was added on top of the enamel and incubated for 30 min at 37° C. A 90 μL aliquot was removed for detection via ABTS oxidation as noted in Example 8. Each sample data point represents an average of 3 independent enamel blocks.

[3] = Retention of perhydrolase on hydroxyapatite (SDS-PAGE band strength); format: binding; conditions: relative to enzyme input = 1
Description: Perhydrolase enzymes listed in Table 6 were assessed for binding to hydroxyapatite. A dispersion of hydroxyapatite nanoparticles (Aldrich 677418) was made at 0.5% solids in 10 mM phosphate buffer at pH 7.2. Enzyme stock solution was added to the hydroxyapatite dispersion to a final concentration of 10 μM and incubated for 30 min in a microcentrifuge tube with gentle agitation. Each sample was centrifuged for 5 min at 10000 rpm. The supernatant was removed and additional buffer was added. The particles were resuspended and transferred to a new tube. The process was repeated two additional times. Samples of the original input of enzyme, the supernatant removed from the particles with each wash step and the final particles were prepared for SDS-PAGE analysis by combining 60 μL of sample, 20 μL of LDS buffer and 8 μL of reducing agent (Nu-PAGE). Samples were heated at 85° C. for 10 min. 25 μL of each sample was loaded on a 4-12% BisTris gel (Invitrogen) and run at 115 volts for 1.5 h. The gel was removed and stained with a 1:1 dilution of Simply Blue stain (Invitrogen) overnight and destained for 4 h in deionized water. The gel was analyzed and detection of enzyme in each fraction was estimated based on the presence of a band. The results of the analysis are provided in Table 7 with an indication of the relative strength of each band in the gel compared to the enzyme input (input=1) to determine the strength of binding between the hydroxyapatite surface and each enzyme.

[4] = Peracetic acid generation from hydroxyapatite bound CE-7 perhydrolase fusions (Example 8); format: biochemical; conditions: hydroxyapatite particles exposed to 10 μM enzyme, washed; 100 mM triacetin, 100 mM H2O2, 30 min, 37° C.; no enzyme 30-118.8
Description: as §1
To assess binding of these constructs to hydroxyapatite, 33 mg of hydroxyapatite particles (Macro-prep Ceramic Hydroxyapatite TYPE I, 80 μm size BioRad, Hercules, Calif.), were washed with 10 mM phosphate buffer at pH 7.2. After removing the supernatant, enzyme stock solution was added to the hydroxyapatite dispersion to a final concentration of 10 μM and incubated for 30 min in a microcentrifuge tube with gentle agitation. Each sample was centrifuged for 1 min at 10000 rpm. The supernatant was removed and additional buffer was added. The particles were resuspended and transferred to a new tube. The process was repeated two additional times. The hydroxyapatite bound enzyme activity was measured by adding a 500 μl solution containing 100 mM triacetin, 100 mM H2O2 in 100 mM phosphate buffer, pH 7.2. The solution was incubated for 30 min, at 37° C. An aliquot was removed and mixed with H3PO4 and properly diluted for detection via ABTS oxidation as described in Example 7. The experiments were performed at different day with no enzyme as control for each experiment.

B1: EZ-16: C277T-link1-HC263-H6, SEQ ID NO: 440 (protein)
chain: MAFFDLPLEELKKYRPERYEEKDFDEFWEETLAESEKFPLDPVFERMESHLKTVEAYDVTFSGYRGQRIKGWLLVPKLEEEKLPCVVQYIGYNGGRGFPHDWLFWPSMGYICFVMDTRGQGSGWLKGDTPDYPEGPVDPQYPGFMTRGILDPRTYYYRRVFTDAVRAVEAAASFPQVDQERIVIAGGSQGGGIALAVSALSKKAKALLCDVPFLCHFRRAVQLVDTHPYAEITNFLKTHRDKEEIVFRTLSYFDGVNFAARAKIPALFSVGLMDNITPPSTVFAAYNYYAGPKEIRIYPYNNHEGGGSFQAVEQVKFLKKLFEKGGPGSGGAGSPGSAGGPGSPSAQSQLPDKHSGLHERAPQRYGPEPEPEPEPIPEPPKEAPVVIEKPKPKPKPKPKPPAHDHKNQKETHQRHAAGSGGGGSPHHHHHH
Peracetic acid (ppm) In Solution [1]: 6496 ppm
Peracetic acid (ppm) On Enamel [2]: 1832 ppm

B2: EZ-14: C277T-link1-DenP308-H6, SEQ ID NO: 438 (protein)
chain: MAFFDLPLEELKKYRPERYEEKDFDEFWEETLAESEKFPLDPVFERMESHLKTVEAYDVTFSGYRGQRIKGWLLVPKLEEEKLPCVVQYIGYNGGRGFPHDWLFWPSMGYICFVMDTRGQGSGWLKGDTPDYPEGPVDPQYPGFMTRGILDPRTYYYRRVFTDAVRAVEAAASFPQVDQERIVIAGGSQGGGIALAVSALSKKAKALLCDVPFLCHFRRAVQLVDTHPYAEITNFLKTHRDKEEIVFRTLSYFDGVNFAARAKIPALFSVGLMDNITPPSTVFAAYNYYAGPKEIRIYPYNNHEGGGSFQAVEQVKFLKKLFEKGGPGSGGAGSPGSAGGPGSTKPPRTPTANTSRPHHNFGSGGGGSPHHHHHH
Peracetic acid (ppm) In Solution [1]: 4689 ppm
Peracetic acid (ppm) On Enamel [2]: 1418 ppm

Unbound (relative band strength) ([3]; 10 μM enzyme, 0.5% hydroxyapatite, pH 7.2): 0.9
HAP Particles (relative band strength) ([3]; enzyme retained on particles after washes): 0.05
Wash1 (relative band strength) [3]: 0.01
Wash2 (relative band strength) [3]: 0.00
Peracetic acid (ppm) [4]: 1885.1 ppm
B3: EZ-9: C277S-link1-H6, SEQ ID NO: 430 (protein)
chain: MAFFDLPLEELKKYRPERYEEKDFDEFWEETLAESEKFPLDPVFERMESHLKTVEAYDVTFSGYRGQRIKGWLLVPKLEEEKLPCVVQYIGYNGGRGFPHDWLFWPSMGYICFVMDTRGQGSGWLKGDTPDYPEGPVDPQYPGFMTRGILDPRTYYYRRVFTDAVRAVEAAASFPQVDQERIVIAGGSQGGGIALAVSALSKKAKALLCDVPFLCHFRRAVQLVDTHPYAEITNFLKTHRDKEEIVFRTLSYFDGVNFAARAKIPALFSVGLMDNISPPSTVFAAYNYYAGPKEIRIYPYNNHEGGGSFQAVEQVKFLKKLFEKGGPGSGGAGSPGSAGGPGSHHHHHH
Peracetic acid (ppm) In Solution [1]: 5499 ppm
Peracetic acid (ppm) On Enamel [2]: 612 ppm

B4: EZ-15: C277T-link1-H6, SEQ ID NO: 439 (protein)
chain: B3 chain with S277T
Peracetic acid (ppm) In Solution [1]: 5921 ppm
Peracetic acid (ppm) On Enamel [2]: 631 ppm

B5: EZ-18: C277T-link1-(GK)5-H6, SEQ ID NO: 442 (protein)
chain: MAFFDLPLEELKKYRPERYEEKDFDEFWEETLAESEKFPLDPVFERMESHLKTVEAYDVTFSGYRGQRIKGWLLVPKLEEEKLPCVVQYIGYNGGRGFPHDWLFWPSMGYICFVMDTRGQGSGWLKGDTPDYPEGPVDPQYPGFMTRGILDPRTYYYRRVFTDAVRAVEAAASFPQVDQERIVIAGGSQGGGIALAVSALSKKAKALLCDVPFLCHFRRAVQLVDTHPYAEITNFLKTHRDKEEIVFRTLSYFDGVNFAARAKIPALFSVGLMDNITPPSTVFAAYNYYAGPKEIRIYPYNNHEGGGSFQAVEQVKFLKKLFEKGGPGSGGAGSPGSAGGPGSGKGKGKGKGKHHHHHH
Peracetic acid (ppm) In Solution [1]: 5537 ppm
Peracetic acid (ppm) On Enamel [2]: 1158 ppm

B6: EZ-12: T. maritima C277T variant, untargeted, SEQ ID NO: 437 (protein)
chain: MAFFDLPLEELKKYRPERYEEKDFDEFWEETLAESEKFPLDPVFERMESHLKTVEAYDVTFSGYRGQRIKGWLLVPKLEEEKLPCVVQYIGYNGGRGFPHDWLFWPSMGYICFVMDTRGQGSGWLKGDTPDYPEGPVDPQYPGFMTRGILDPRTYYYRRVFTDAVRAVEAAASFPQVDQERIVIAGGSQGGGIALAVSALSKKAKALLCDVPFLCHFRRAVQLVDTHPYAEITNFLKTHRDKEEIVFRTLSYFDGVNFAARAKIPALFSVGLMDNITPPSTVFAAYNYYAGPKEIRIYPYNNHEGGGSFQAVEQVKFLKKLFEKG
Peracetic acid (ppm) In Solution [1]: 4918 ppm
Peracetic acid (ppm) On Enamel [2]: 612 ppm

B7: EZ-17: C277T-link2-H6, SEQ ID NO: 441 (protein)
chain: MAFFDLPLEELKKYRPERYEEKDFDEFWEETLAESEKFPLDPVFERMESHLKTVEAYDVTFSGYRGQRIKGWLLVPKLEEEKLPCVVQYIGYNGGRGFPHDWLFWPSMGYICFVMDTRGQGSGWLKGDTPDYPEGPVDPQYPGFMTRGILDPRTYYYRRVFTDAVRAVEAAASFPQVDQERIVIAGGSQGGGIALAVSALSKKAKALLCDVPFLCHFRRAVQLVDTHPYAEITNFLKTHRDKEEIVFRTLSYFDGVNFAARAKIPALFSVGLMDNITPPSTVFAAYNYYAGPKEIRIYPYNNHEGGGSFQAVEQVKFLKKLFEKGGSHHHHHH
Peracetic acid (ppm) In Solution [1]: 5360 ppm
Peracetic acid (ppm) On Enamel [2]: 616 ppm
